From patent US20250051444A1 (SUZHOU ZELGEN BIOPHARMACEUTICALS, published 2025) come the findings set out here.

The target of the assay is T1, human LRRC15 (leucine-rich repeat containing protein 15) (human, UniProt Q8TF66 22-581).
T1 construct: whole, on cells; also called huLRRC15
T1 sequence (looked up): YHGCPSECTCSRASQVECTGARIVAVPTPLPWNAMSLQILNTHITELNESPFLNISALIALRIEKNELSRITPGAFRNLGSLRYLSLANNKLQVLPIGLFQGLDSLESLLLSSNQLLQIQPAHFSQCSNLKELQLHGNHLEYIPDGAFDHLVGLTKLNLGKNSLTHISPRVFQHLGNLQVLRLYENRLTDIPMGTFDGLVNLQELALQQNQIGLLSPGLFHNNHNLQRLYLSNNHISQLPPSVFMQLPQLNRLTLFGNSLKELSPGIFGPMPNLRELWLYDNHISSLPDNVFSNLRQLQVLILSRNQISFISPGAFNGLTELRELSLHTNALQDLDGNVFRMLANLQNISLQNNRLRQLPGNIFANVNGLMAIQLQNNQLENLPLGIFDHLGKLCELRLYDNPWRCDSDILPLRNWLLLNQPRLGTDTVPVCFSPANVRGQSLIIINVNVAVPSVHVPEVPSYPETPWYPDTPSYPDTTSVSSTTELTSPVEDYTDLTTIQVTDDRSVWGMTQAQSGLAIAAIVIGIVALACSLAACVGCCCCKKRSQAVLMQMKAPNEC
The assay is described as follows: FACS on CHO cells expressing human LRRC15. How it is done: Furthermore, the binding ability of the LRRC15 antibodies of the present invention to CHO cells expressing LRRC15 was tested. Therein, CHO cells expressing LRRC15 were prepared by the following method: the full-length sequence gene fragments of human, mouse and monkey LRRC15 were obtained by whole gene synthesis, and then these fragments were inserted into the backbone of the stable expression vector to obtain the expression plasmid vectors. These three plasmids were transfected into CHO cells, and monoclonal cell lines were screened under the pressure of puromycin, which are the flow cytometry cell lines used in this example.
CHO cells expressing LRRC15 were washed with FACS buffer (0.5% BSA in PBS) and resuspended at 2E6 cells/ml with the gradient diluted LRRC15 antibodies. The resuspension was incubated on ice for 30 minutes, then washed twice with FACS buffer and incubated with the second antibody on ice for 30 minutes. After washing the resuspended cells with FACS buffer again, the cells were detected by flow cytometry. Based on the measured mean fluorescence intensity, the half maximal binding concentration (EC50) of each antibody was determined.

B1: 153-L06C (bispecific antibody)
chain 1: not shown
chain 2: EPKSCDKTHTCPPCPAPEFEGGPSVFLFPPKPKDTLMISRTPEVTCVVVDVSHEDPEVKFNWYVDGVEVHNAKTKPREEQYNSTYRVVSVLTVLHQDWLNGKEYKCKVSNKALPASIEKTISKAKGQPREPQVCTLPPSRDELTKNQVSLTCLVEGFYPSDIAVEWESNGQPENNYKTTPPVLDSDGSFFLYSDLTVDKSRWQQGNVFSCSVMHEALHNHYTQESLSLSPGK
notes: Targets LRRC15 and CD3; heterodimeric IgG1 Fc; also called bispecific antibody of structure b (scFv-scFv-Fc x Fc)
B1: the binding result is on record as “binds”.

B2: L15-07 (antibody, V domains shown)
VH: QVQLVQSGAEVKKPGSSVKVSCKASGGTFSTYAISWVRQAPGQGLEWMGGITPMFGTPNYAQKFQGRVTITADESTSTAYMELSSLRSEDTAVYYCARGDWYDYHFDYWGQGTLVTVSS
VL: QSALTQPASVSGSPGQSITISCTGTSSDVGGYNYVSWYQQHPGKAPKLMIYEVSNRPSGVSNRFSGSKSGNTASLTISGLQAEDEADYYCQSYANRDNFVVFGGGTKLTVL
notes: From phage library screening
Take B2: the binding result is given as “binds”.

B3: L15-03 (antibody, V domains shown)
VH: QVQLVQSGAEVKKPGSSVKVSCKASGGTFSSYTISWVRQAPGQGLEWMGGIIPMFGTANYAQKFQGRVTITADESTSTAYMELSSLRSEDTAVYYCARGVALLATDFDYWGQGTLVTVSS
VL: QSALTQPASVSGSPGQSITISCTGTSSDVGGYNYVSWYQQHPGKAPKLMIYEVSNRPSGVSNRFSGSKSGNTASLTISGLQAEDEADYYCQSWTHDNSVVFGGGTKLTVL
notes: From phage library screening; also called anti-LRRC15 antibody L15-03
As to B3, the binding result is on record as “binds”.

B4: L15-08 (antibody, V domains shown)
VH: QVQLVESGGGLVKPGGSLRLSCAASGFTFSDYYMSWIRQAPGKGLEWVSDISVSSSYTNYADSVKGRFTISRDNAKNSLYLQMNSLRAEDTAVYYCARLGGYRSFFSTDDGDSLDYWGQGTLVTVSS
VL: not shown
notes: From phage library screening
B4: the binding result was “binds”.

B5: 315-L06C08 (bispecific antibody)
chain: not shown
heavy: QVQLVESGGGLVKPGGSLRLSCAASGFTFSDYYMSWIRQAPGKGLEWVSDISVSSSYTNYADSVKGRFTISRDNAKNSLYLQMNSLRAEDTAVYYCARLGGYRSFFSTDDGDSLDYWGQGTLVTVSSASTKGPSVFPLAPSSKSTSGGTAALGCLVKDYFPEPVTVSWNSGALTSGVHTFPAVLQSSGLYSLSSVVTVPSSSLGTQTYICNVNHKPSNTKVDKRVEPKSCDKTHTCPPCPAPEFEGGPSVFLFPPKPKDTLMISRTPEVTCVVVDVSHEDPEVKFNWYVDGVEVHNAKTKPREEQYNSTYRVVSVLTVLHQDWLNGKEYKCKVSNKALPASIEKTISKAKGQPREPQVCTLPPSRDELTKNQVSLTCLVEGFYPSDIAVEWESNGQPENNYKTTPPVLDSDGSFFLYSDLTVDKSRWQQGNVFSCSVMHEALHNHYTQESLSLSPGK
light: not shown
notes: heterodimeric IgG1 Fc; also called bispecific antibody of structure c (scFv-scFv-Fc x Fab-Fc)
As to B5, the binding result is given as “binds”.

B6: L15-06 (antibody, V domains shown)
VH: EVQLLESGGGLVQPGGSLRLSCAASGFTFSSYYMSWVRQAPGKGLEWVADISVSGSYTNYADSVKGRFTISRDNSKNTLYLQMNSLRAEDTAVYYCARIGSYRSFFSTDDGDSLDYWGQGTLVTVSS
VL: not shown
notes: From phage library screening; tested as a 'monoclonal antibody molecule'; also called L15-L06
Consider B6, for which the binding result was “binds”.
